# B1: recombinant YwlG (natural protein, S. aureus)
# chain: KDLTMLLDELKDMSFFNKGDICLIGCSTSEVIGEKIGTVGSMEVAETIFNALDVVSKETGVTFAFQGCEHINRAITIEKSQYNPLTMEEVSVVPDVHAGGSLATYAFQHMKDPIVVEHITVPCGIDIGQTLIGMHIKHVCVPVRTSVKQVGQAIVTIATSRPKKIGGERAKYQ
# modifications: C69 was oxidized in the crystals
# notes: YwlG of Staphylococcus aureus, 174 a.a., locus tag SAUSA300_2068; also called S. aureus YwlG; source: E. coli, purified (described in SI Appendix)
# Molecular target: the molecule itself
# Assay: SEC; size-exclusion chromatography of recombinant YwlG
protein,measurement,value
B1,stoichiometry N,6

# Source: article PMC9522360, “Bidirectional sequestration between a bacterial hibernation factor and a glutamate metabolizing protein” (Proceedings of the National Academy of Sciences of the …, 2022)
